Test results published in patent publication US20100150879A1 (published 2010).
No end group written: not given here.

Columns and labels:
[1] = biological target: T1, γ-catenin (plakoglobin), endogenous (human, UniProt P14923 1-745); assay: immunoprecipitation and western blot, HEK293 cells expressing HA-LPP3
T1 construct: Endogenous protein from cell extracts; also called gamma-catenin
T1 sequence (looked up): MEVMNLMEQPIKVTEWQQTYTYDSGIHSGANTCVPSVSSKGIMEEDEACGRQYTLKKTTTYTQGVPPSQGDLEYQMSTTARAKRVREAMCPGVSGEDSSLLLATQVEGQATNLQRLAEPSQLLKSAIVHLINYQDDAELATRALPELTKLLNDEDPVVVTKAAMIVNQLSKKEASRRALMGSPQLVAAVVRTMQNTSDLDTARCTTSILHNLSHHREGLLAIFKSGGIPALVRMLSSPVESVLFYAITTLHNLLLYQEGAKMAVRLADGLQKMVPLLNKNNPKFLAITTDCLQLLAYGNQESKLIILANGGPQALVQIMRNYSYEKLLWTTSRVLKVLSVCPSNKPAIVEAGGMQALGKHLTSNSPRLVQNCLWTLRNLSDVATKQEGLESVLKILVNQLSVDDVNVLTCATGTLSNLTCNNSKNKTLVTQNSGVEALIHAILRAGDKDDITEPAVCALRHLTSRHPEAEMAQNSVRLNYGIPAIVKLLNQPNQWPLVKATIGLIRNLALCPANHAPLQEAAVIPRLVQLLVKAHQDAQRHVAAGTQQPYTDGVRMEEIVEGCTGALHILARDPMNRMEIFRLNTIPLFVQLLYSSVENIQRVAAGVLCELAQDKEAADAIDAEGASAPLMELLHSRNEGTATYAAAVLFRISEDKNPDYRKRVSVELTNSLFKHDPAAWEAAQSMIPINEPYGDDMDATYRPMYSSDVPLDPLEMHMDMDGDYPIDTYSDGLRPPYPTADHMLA
Method: (§1) For immunoprecipitation experiments, cells were rinsed with cold phosphate buffered saline (PBS), pH 7.4 and solubilized with complete cell lysis buffer (50 mM HEPES, pH 7.5; 150 mM NaCl; 1% TRITON X-100; 1 mM calcium chloride; 1 mM magnesium chloride; 1 mM sodium orthovanadate; 25 mM sodium fluoride; 1 mM sodium pyrosphosphate; 1 mM phenylmethylsulfonyl fluoride (PMSF); 10 μg/ml aprotinin; 10 μg/ml leupeptin; 1 μg/ml pepstatin-A) or with modified RIPA buffer (20 mM Tris, pH 7.5; 0.1% SDS; 0.25% sodium deoxycholate; 1% TRITON X-100; 150 mM sodium chloride; 1 mM sodium pyrosphosphate; 25 mM sodium fluoride; 1 mM sodium orthovanadate; 5 mM magnesium chloride; 1 mM calcium chloride; 1 μg/ml pepstatin; 1 mM phenylmethylsulfonyl fluoride; 1 μg/ml leupeptin) at 4° C. for 30 minutes. Cell extracts were centrifuged at ˜21,000×g for 30 minutes at 4° C., pre-adsorbed, and immunoprecipitated using specific antibodies. Immune complexes were washed 4-5 times with lysis buffer or with cold immunoprecipitation wash buffer (50 mM HEPES, pH 7.5; 150 mM NaCl; 0.5% NP-40; 1 mM calcium chloride; 1 mM magnesium chloride). SEPHAROSE-bound immune complexes were boiled in 1× Lammeli reducing sample buffer and resolved by SDS-PAGE.

β-catenin, endogenous [2] = biological target: T2, β-catenin, endogenous (human, UniProt P35222 2-781); assay: as above
T2 construct: Endogenous protein from cell extracts; also called beta-catenin
T2 sequence (looked up): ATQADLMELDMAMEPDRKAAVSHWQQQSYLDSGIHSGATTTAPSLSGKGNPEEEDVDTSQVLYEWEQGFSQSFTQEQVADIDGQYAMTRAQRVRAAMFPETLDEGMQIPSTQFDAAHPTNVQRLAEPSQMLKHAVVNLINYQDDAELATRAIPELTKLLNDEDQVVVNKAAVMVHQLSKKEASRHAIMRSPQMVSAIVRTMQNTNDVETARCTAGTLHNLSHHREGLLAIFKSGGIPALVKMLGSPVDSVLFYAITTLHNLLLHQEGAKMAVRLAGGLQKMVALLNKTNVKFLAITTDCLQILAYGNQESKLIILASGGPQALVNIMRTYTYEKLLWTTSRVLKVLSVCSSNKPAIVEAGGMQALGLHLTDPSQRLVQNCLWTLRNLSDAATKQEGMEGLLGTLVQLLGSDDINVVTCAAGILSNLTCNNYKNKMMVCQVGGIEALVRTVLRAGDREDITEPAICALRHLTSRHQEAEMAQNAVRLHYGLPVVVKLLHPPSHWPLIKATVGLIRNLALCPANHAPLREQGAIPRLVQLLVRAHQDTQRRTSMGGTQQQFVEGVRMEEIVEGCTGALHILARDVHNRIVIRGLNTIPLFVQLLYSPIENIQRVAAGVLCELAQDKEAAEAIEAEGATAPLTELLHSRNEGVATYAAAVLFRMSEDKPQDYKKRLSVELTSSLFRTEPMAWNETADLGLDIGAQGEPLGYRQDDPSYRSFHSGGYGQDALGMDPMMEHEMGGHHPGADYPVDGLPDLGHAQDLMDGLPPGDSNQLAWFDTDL
Method: as §1

β-catenin, endogenous [3] = biological target: T2, β-catenin, endogenous; assay: co-immunoprecipitation from sub-confluent ECs transfected with FLAG-tagged PTEN
Method: Cell extracts were centrifuged at ˜21,000×g for 30 minutes at 4° C., pre-adsorbed, and immunoprecipitated using specific antibodies. Immune complexes were washed 4-5 times with lysis buffer or with cold immunoprecipitation wash buffer (50 mM HEPES, pH 7.5; 150 mM NaCl; 0.5% NP-40; 1 mM calcium chloride; 1 mM magnesium chloride). SEPHAROSE-bound immune complexes were boiled in 1× Lammeli reducing sample buffer and resolved by SDS-PAGE.
It was initially determined whether PTEN binds to β-catenin in sub-confluent ECs.

[4] = biological target: T3, VE-cadherin, endogenous in hdMVEC (human, UniProt P33151 48-784); assay: far western, GST-LPP3-C-cyto as bait on blotted immunoprecipitates from hdMVEC
T3 construct: Endogenous protein from confluent EC extracts
T3 sequence (looked up): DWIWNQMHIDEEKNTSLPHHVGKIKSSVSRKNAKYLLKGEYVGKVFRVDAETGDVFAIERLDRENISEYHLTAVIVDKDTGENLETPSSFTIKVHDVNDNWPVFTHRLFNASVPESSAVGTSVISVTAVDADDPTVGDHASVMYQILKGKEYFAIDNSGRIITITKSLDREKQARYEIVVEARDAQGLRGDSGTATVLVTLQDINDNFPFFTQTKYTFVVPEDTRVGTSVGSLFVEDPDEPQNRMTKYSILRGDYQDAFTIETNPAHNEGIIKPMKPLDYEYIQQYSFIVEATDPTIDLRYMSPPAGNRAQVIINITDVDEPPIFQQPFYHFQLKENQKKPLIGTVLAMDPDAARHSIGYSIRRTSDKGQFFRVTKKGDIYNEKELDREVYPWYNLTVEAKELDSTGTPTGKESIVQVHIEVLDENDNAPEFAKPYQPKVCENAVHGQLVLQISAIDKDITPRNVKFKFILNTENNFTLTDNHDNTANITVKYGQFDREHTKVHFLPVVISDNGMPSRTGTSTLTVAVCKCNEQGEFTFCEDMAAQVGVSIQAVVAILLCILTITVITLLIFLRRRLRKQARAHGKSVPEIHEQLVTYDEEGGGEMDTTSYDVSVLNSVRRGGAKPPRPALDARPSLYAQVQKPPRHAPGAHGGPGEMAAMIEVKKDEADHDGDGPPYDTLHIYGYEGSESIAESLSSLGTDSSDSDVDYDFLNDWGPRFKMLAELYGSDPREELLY

[5] = biological target: T4, β1-integrin, endogenous in hdMVEC (human, UniProt P05556 21-798); assay: as above
T4 construct: Immunoprecipitated from hdMVEC extracts and blotted for far western analysis; also called beta1-integrin
T4 sequence (P05556 21-798): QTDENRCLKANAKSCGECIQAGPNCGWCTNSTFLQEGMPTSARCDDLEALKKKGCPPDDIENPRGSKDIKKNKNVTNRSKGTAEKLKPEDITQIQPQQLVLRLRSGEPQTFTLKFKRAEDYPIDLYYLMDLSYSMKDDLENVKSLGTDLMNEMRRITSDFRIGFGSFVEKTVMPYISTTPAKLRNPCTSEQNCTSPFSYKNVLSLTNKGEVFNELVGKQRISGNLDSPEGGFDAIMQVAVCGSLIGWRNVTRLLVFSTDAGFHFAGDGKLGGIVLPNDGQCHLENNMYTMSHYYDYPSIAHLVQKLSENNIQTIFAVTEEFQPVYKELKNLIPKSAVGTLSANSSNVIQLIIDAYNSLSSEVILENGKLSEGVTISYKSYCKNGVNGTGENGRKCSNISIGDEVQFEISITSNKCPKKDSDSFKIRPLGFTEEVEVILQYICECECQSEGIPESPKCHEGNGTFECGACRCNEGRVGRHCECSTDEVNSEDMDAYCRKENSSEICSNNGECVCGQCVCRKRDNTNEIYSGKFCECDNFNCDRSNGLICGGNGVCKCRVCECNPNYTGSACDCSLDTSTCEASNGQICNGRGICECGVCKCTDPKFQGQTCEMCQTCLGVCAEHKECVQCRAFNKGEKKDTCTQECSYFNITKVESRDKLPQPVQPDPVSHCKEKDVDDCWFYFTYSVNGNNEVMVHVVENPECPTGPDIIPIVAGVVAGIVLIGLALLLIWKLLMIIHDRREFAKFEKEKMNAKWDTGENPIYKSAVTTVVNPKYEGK

[6] = biological target: T1, γ-catenin (plakoglobin), endogenous; assay: as above
β-catenin, endogenous [7] = biological target: T2, β-catenin, endogenous; assay: as above
β-catenin, endogenous [8] = biological target: T2, β-catenin, endogenous; assay: interaction assay in extracts of ECs transfected with LPP3 constructs (method not spelled out)
[9] = biological target: T5, p120-catenin (p120ctn), endogenous (human, UniProt O60716 1-968, limits assumed); assay: GST pull-down
T5 construct: Endogenous protein from cell extracts of human cells (hdMVEC, HEK293)
T5 sequence (looked up): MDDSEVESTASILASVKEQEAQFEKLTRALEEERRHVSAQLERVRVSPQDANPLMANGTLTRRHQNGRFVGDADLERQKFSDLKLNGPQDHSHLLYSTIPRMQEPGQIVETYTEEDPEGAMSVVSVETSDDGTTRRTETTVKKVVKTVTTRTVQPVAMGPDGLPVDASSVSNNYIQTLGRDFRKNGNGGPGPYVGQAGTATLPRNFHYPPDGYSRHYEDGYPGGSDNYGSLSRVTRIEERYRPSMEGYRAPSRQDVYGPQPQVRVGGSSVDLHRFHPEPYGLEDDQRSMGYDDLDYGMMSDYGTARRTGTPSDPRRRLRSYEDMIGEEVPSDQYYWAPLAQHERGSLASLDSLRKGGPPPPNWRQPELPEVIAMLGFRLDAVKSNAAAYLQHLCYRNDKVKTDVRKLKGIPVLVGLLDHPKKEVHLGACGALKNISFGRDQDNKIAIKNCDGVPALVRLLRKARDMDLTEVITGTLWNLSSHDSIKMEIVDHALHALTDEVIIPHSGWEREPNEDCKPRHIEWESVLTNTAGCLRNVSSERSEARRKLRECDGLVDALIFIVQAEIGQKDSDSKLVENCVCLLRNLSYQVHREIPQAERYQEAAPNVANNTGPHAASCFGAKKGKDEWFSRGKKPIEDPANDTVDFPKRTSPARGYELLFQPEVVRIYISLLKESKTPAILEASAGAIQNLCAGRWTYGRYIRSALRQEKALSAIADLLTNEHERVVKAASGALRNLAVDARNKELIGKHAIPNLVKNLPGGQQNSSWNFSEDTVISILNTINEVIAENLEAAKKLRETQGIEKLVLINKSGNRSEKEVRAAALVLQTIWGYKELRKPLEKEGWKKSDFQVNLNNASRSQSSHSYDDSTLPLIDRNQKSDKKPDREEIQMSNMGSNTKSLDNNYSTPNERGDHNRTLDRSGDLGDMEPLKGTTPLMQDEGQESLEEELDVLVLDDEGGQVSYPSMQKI
Method: Pull-down assays were also carried out with GST-LPP3 fusion proteins. […] In these experiments, each of the membranes was probed for the presence of the GST-fusion protein.

[10] = biological target: T3, VE-cadherin, endogenous in hdMVEC; assay: co-immunoprecipitation from confluent EC extracts
Method: Biochemical Experiments. For immunoprecipitation experiments, cells were rinsed with cold phosphate buffered saline (PBS), pH 7.4 and solubilized with complete cell lysis buffer (50 mM HEPES, pH 7.5; 150 mM NaCl; 1% TRITON X-100; 1 mM calcium chloride; 1 mM magnesium chloride; 1 mM sodium orthovanadate; 25 mM sodium fluoride; 1 mM sodium pyrosphosphate; 1 mM phenylmethylsulfonyl fluoride (PMSF); 10 μg/ml aprotinin; 10 μg/ml leupeptin; 1 μg/ml pepstatin-A) or with modified RIPA buffer (20 mM Tris, pH 7.5; 0.1% SDS; 0.25% sodium deoxycholate; 1% TRITON X-100; 150 mM sodium chloride; 1 mM sodium pyrosphosphate; 25 mM sodium fluoride; 1 mM sodium orthovanadate; 5 mM magnesium chloride; 1 mM calcium chloride; 1 μg/ml pepstatin; 1 mM phenylmethylsulfonyl fluoride; 1 μg/ml leupeptin) at 4° C. for 30 minutes. Cell extracts were centrifuged at ˜21,000×g for 30 minutes at 4° C., pre-adsorbed, and immunoprecipitated using specific antibodies. Immune complexes were washed 4-5 times with lysis buffer or with cold immunoprecipitation wash buffer (50 mM HEPES, pH 7.5; 150 mM NaCl; 0.5% NP-40; 1 mM calcium chloride; 1 mM magnesium chloride). SEPHAROSE-bound immune complexes were boiled in 1× Lammeli reducing sample buffer and resolved by SDS-PAGE. […]

B1: HA-tagged human wild-type LPP3 (pLNCX2-HA-WT-hLPP3) (enzyme)
chain: YPYDVPDYAYPYDVPDYAYPYDVPDYAMQNYKYDKAIVPESKNGGSPALNNNPRRSGSKRVLLICLDLFCLFMAGLPFLIIETSTIKPYHRGFYCNDESIKYPLKTGETINDAVLCAVGIVIAILAIITGEFYRIYYLKKSRSTIQNPYVAALYKQVGCFLFGCAISQSFTDIAKVSIGRLRPHFLSVCNPDFSQINCSEGYIQNYRCRGDDSKVQEARKSFFSGHASFSMYTMLYLVLYLQARFTWRGARLLRPLLQFTLIMMAFYTGLSRVSDHKHHPSDVLAGFAQGALVACCIVFFVSDLFKTKTTLSLPAPAIRKEILSPVDIIDRNNHHNMM
notes: whole, on cells; Three copies of the HA tag are fused in-frame at the N-terminus; also called HA-LPP3
- binding result [1]: no binding
- binding result (β-catenin, endogenous [2]): no binding

B2: FLAG-tagged wild-type PTEN (enzyme)
chain: not shown
notes: Gift construct, transfected into sub-confluent ECs; also called WT-PTEN; not shown: FLAG tag
- binding result (β-catenin, endogenous [3]): no binding

B3: GST-LPP3-C-cyto fusion protein (GST fused to the C-terminal cytoplasmic domain of LPP3) (other)
chain: SDLFKTKMTLSLPAPAIRKEILSPVDIIDRNNHHNMM
modifications: also: fused to glutathione-S-transferase (GST), linker not given here
notes: Expressed in E. coli; ran at 32 kDa; also called GST-C-cyto; GST-CC; not shown: glutathione-S-transferase (GST)
- binding result [4]: no binding (tested: 2.0 µg/ml)
- binding result [5]: no binding (tested: 2.0 µg/ml)
- binding result [6]: no binding (tested: 2.0 µg/ml)
- binding result (β-catenin, endogenous [7]): no binding (tested: 2.0 µg/ml)

B4: Lymphoid Enhancer Binding Factor 1 (LEF-1), endogenous in hdMVEC (other, human, UniProt Q9UJU2 1-399, looked up)
chain: MPQLSGGGGGGGGDPELCATDEMIPFKDEGDPQKEKIFAEISHPEEEGDLADIKSSLVNESEIIPASNGHEVARQAQTSQEPYHDKAREHPDDGKHPDGGLYNKGPSYSSYSGYIMMPNMNNDPYMSNGSLSPPIPRTSNKVPVVQPSHAVHPLTPLITYSDEHFSPGSHPSHIPSDVNSKQGMSRHPPAPDIPTFYPLSPGGVGQITPPLGWQGQPVYPITGGFRQPYPSSLSVDTSMSRFSHHMIPGPPGPHTTGIPHPAIVTPQVKQEHPHTDSDLMHVKPQHEQRKEQEPKRPHIKKPLNAFMLYMKEMRANVVAECTLKESAAINQILGRRWHALSREEQAKYYELARKERQLHMQLYPGWSARDNYGKKKKRKREKLQESASGTGPRMTAAYI
notes: Endogenous protein from EC extracts
- binding result (β-catenin, endogenous [8]): binds

B5: GST-N-cyto fusion protein (GST fused to the N-terminal cytoplasmic domain of LPP3) (other)
chain: QNYKYDKAIVPESKNGGSPALNNNPRRSGSK
notes: Expressed in E. coli; not shown: glutathione-S-transferase (GST)
- binding result [9]: no binding

B6: Lipid Phosphate Phosphatase-3 (LPP3), endogenous in human dermal microvascular endothelial cells (enzyme, UniProt O14495 1-311, looked up)
chain: MQNYKYDKAIVPESKNGGSPALNNNPRRSGSKRVLLICLDLFCLFMAGLPFLIIETSTIKPYHRGFYCNDESIKYPLKTGETINDAVLCAVGIVIAILAIITGEFYRIYYLKKSRSTIQNPYVAALYKQVGCFLFGCAISQSFTDIAKVSIGRLRPHFLSVCNPDFSQINCSEGYIQNYRCRGDDSKVQEARKSFFSGHASFSMYTMLYLVLYLQARFTWRGARLLRPLLQFTLIMMAFYTGLSRVSDHKHHPSDVLAGFAQGALVACCIVFFVSDLFKTKTTLSLPAPAIRKEILSPVDIIDRNNHHNMM
notes: Endogenous protein immunoprecipitated from hdMVEC lysates; also called phosphatidic acid phosphatase-2b; PAP2b
- binding result [10]: no binding
